{
  "source": "paper PMC7949043",
  "about": "“Allosteric regulation of the nickel-responsive NikR transcription factor from Helicobacter pylori”",
  "binders": {"B1": {"name": "ureA-F (32 bp ureA promoter) (dsDNA)", "DNA 1": "ATATAACACTAATTCATTTTAAATAATAATTA", "DNA 2": "TAATTATTATTTAAAATGAATTAGTGTTATAT"}, "B2": {"name": "ureA-perf-F (32 bp) (dsDNA)", "DNA 1": "B1 DNA 1 with A6T, C7T, C9T", "DNA 2": "B1 DNA 2 with G24A, G26A, T27A"}},
  "key": {"HpNikR [1]": {"target": "T1, HpNikR (Helicobacter pylori G27 (strain from …, UniProt A1YSQ9 1-148))", "T1 sequence": "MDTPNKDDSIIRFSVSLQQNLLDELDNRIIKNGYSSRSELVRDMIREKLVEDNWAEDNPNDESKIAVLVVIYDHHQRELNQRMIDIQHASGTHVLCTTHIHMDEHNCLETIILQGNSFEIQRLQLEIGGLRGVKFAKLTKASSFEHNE", "assay": "fluorescence anisotropy; Ni(II) 1.2 eq per monomer; Hill n = 1.8 ± 0.1; FA: 5 nM labeled DNA, 20 mM Tris pH 7.6, 100 mM NaCl, 3 mM MgSO4, temperature not stated (metal loading at room temperature); 19F-NMR: same buffer with 10% D2O, 400-900 uM monomer, DNA 1 eq per tetramer, variable temperature from 4 C", "details": "protein: recombinant; tags: none; chain copies: 4; label: fluorescein at central T in the spacer of strand 1 (printed [F] after T14); blunt"}, "HpNikR [2]": {"target": "T1, HpNikR", "assay": "fluorescence anisotropy; Ni(II) 1.2 eq per monomer; Hill n = 1.9 ± 0.2; FA: 5 nM labeled DNA, 20 mM Tris pH 7.6, 100 mM NaCl, 3 mM MgSO4, temperature not stated (metal loading at room temperature); 19F-NMR: same buffer with 10% D2O, 400-900 uM monomer, DNA 1 eq per tetramer, variable temperature from 4 C", "details": "protein: recombinant; tags: none; chain copies: 4; label: fluorescein at central T in the spacer of strand 1 (printed [F] after T14); blunt"}},
  "note": "Changes are numbered by the printed parent chain.",
  "data": [
    {"binder": "B1", "values": [
      {"measurement": "Kd", "setting": "HpNikR [1]", "result": "4.5 ± 0.6", "unit": "nM"}
    ]},
    {"binder": "B2", "values": [
      {"measurement": "Kd", "setting": "HpNikR [2]", "result": "4.7 ± 0.4", "unit": "nM"}
    ]}
  ]
}
